# Results taken from the nanobody polyreactivity screen of Harvey et al. (2022).
# Experiment: yeast display, Sf9 membrane polyspecificity reagent, FACS + sequencing; frameworks hold sequencing errors
# How it was run: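 Synthetic nanobody libraries on Saccharomyces cerevisiae BJ5465 were galactose-induced for 36–48 hours, stained 1 hour at 4 °C with 10% biotinylated, detergent-solubilized Sf9 membrane reagent and enriched on streptavidin microbeads. FACS then separated cells into low and high (top ~1%) gates by anti-HA (expression) and streptavidin (reagent binding) fluorescence. Genes were colony-PCR amplified, MiSeq 2 × 250 sequenced and CDR-length filtered. A clone's polyreactivity label is that of its gate of origin.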
row,Sequence,polyreactivity (PSR sort gate)
1,QVQLVESGGGLVQAGGSLRLSCAATGRTFRVYAIGWYRHAHAKEREFVATISVRGGSTYYADSVKGRFTISRDNAKNTVYLQMNSLKPEDTAVYYCAADSYPYVYALYDYWGQGTQVTVSS,low polyreactivity
2,QVQLVESGGGLVQAGGSLRLSCAATGRTFYPYVMGWYRQAAGKERDLVASITDSGGNTYYADSVKGRFTISRDHAKNTVYLQMNSLKPEDTAVYYCNASFYYPSRRGTFQYNYWGHGTQVTVSS,low polyreactivity
3,QVQLVESGGGLVQAGGSLRLSCAATGRTFYVYAMGWYRQAPGKERELVADITWSGGSTYADSVKGRFTISRDNAKNTVYLQMNSLKPEDTAVYYCAAEWQTWYGVEYDYWGQGTQVTVSS,high polyreactivity
4,QVQLVESGGGLVQAGGSLRLSCAATGRTLVLYAMGWYRQAPGKERELVAAITWSGDSTYYADSVKGRFSISRDNAKYTVYLQMKSLKPEDTAVYYCAATYLNAKRGLRYDYWGQGTQVSVSS,low polyreactivity
5,QVQLVESGGGLVQAGGSLRLSCAATGRTSFRYTMGWYRQAPGKERELVAGISGSGGRTYYADSVKGRVTISRDNAKNTVYLQMNSLKPEDTAVYYCAAAWYTSHAKGKGGYWGQGTQVTVSS,high polyreactivity
6,QVQLVESGGGLVQAGGSLRLSCAATGSILEYYVMGWYRLAPGKERELVAAIRGGGSTYYADAVKGRFTISRDNAKNSVYLQMNSLKPEDTAVEYCAKDSQPARDFDYWGQGTQVTVSS,low polyreactivity
7,QVQLVESGGGLVQAGGSLRLSCAATGSTFDPNVMGWYRQAPGKEREFVAAISSRSGSTSYADSVKGRFTISRDNAKNTVYLQMNCLKPEVTAVYYCAARVYGLPLRMYSWGQGTQVTLSS,high polyreactivity
8,QVQLVESGGGLVQAGGSLRLSCAATGSTFFIYAMGWYRQAPGKERELVAAISGSGGTTYYADSVKGRFTISRDNAKNTVYLHMNSLKPEDTAVYYGAARTFSAFWRGGYDYWGQGTQVTVSS,low polyreactivity
9,QVQLVESGGGLVQAGGSLRLSCAATGSTIEANTMGWYRQAPGKERELVASITTSGGSTNYADSVKGRFTISRDNAKNTVYLQMNSLKPEDTAVYYCAVRSTYARWNWRTADSSRDYWGQGTQVTVSS,low polyreactivity
10,QVQLVESGGGLVQAGGSLRLSCAATGSTIRSYGMGWYRQAPGKERELVASISWSGGSTYYADSVKGRFTISRDNAKNTVYLQMNSLKPEDTAVYYCAAGTLYSLYFGRHGYWGQGTQVTVSS,low polyreactivity
11,QVQLVESGGGLVQAGGSLRLSCAATGSTSGKNAMGWYRQAPAKERELFAAIRNSGGTTYYADSVKGRFTISRDNAKNTVYLQMNSLKPEDTAVYYCATRYYLNFLDGYNYWGQGTQVTVSS,high polyreactivity
12,QVQLVESGGGLVQAGGSLRLSCAATGYIIQHYAMGWYRQSAGKERELVAAITSGGSTTYADSVKWRFTISRDNAKNTVFLQMNSLKPEDSAVYYCKALRRDRYTRKGYEYWGQGTQVTVSS,high polyreactivity
13,QVQLVESGGGLVQAGGSLRLSCAAYGFIFPGNAMGWYIQAPGKERELVAAISNSGSRTYYADSVKGRFTISRDNAKNTVYLQMNSLKPEDTAVYYCNADVHNRGWPYDYWGQGTQVTVSS,low polyreactivity
14,QVQLVESGGGLVQAGGSLRLSCAAYGFTFYLNAMGWYRPAPGKERELVAAISYSDGSTYYADSVKGRFTISRDNAKNTVYLQMTSLKPEDTAVYYCAADTTDPGGAYQLMDYWGQGTQVSVSS,low polyreactivity
15,QVQLVESGGGLVQAGGSLRLSCAAYGGFFWYYTMGRYRQAPGKEREFVATITKRGGRTYYADSVKGRFTISRDNAKITVYLQMNSLKPEDTAVYFCNALGGPKSVRFDYWGQGTQVTVSS,high polyreactivity
16,QVQLVESGGGLVQAGGSLRLSCAAYGGIFGRYAMGWYRQAPGKERELVAAISKRGGSTYYADSVKGRVTISRDNAKNTVYLQMNSLKPEETAVYYCNAAQSVELGYDYCGQGTQVTVSS,high polyreactivity
17,QVQLVESGGGLVQAGGSLRLSCAAYGGTFPAYTMGWYRQAPGKERELVAAITWSGGNTYYADSVKGRFTISRDNAKNTVYLQMNSLKPQDTAVYYCAAEYWQYQWSVRIDYEYWGQGTQVNVSS,high polyreactivity
